Measured values from paper PMC11490872, “Drug-resistant menin variants retain high binding affinity and interactions with MLL1” (The Journal of Biological Chemistry, 2024).
Numbering of substitutions follows the chain as printed. Read-outs that look alike come from different tables or passages of the source. Values belong to the molecule of their own block, whether it stands above or below them.

Key:
Type in all cases: binding
[1] = molecular target: T1, menin^G331D-FLSN-MLL1^4-43 (Homo sapiens, UniProt O00255, G326D); assay: FP competition, displacement of FLSN-MLL1^4-43 from menin^G331D
T1 construct: The gene encoding full-length human menin was cloned into a pET32a expression vector; thioredoxin-His6 (cleaved yes); made in house; host or cells: E. coli BL21(DE3); probe peptide from GenScript
T1 sequence (O00255 1-610 G326D): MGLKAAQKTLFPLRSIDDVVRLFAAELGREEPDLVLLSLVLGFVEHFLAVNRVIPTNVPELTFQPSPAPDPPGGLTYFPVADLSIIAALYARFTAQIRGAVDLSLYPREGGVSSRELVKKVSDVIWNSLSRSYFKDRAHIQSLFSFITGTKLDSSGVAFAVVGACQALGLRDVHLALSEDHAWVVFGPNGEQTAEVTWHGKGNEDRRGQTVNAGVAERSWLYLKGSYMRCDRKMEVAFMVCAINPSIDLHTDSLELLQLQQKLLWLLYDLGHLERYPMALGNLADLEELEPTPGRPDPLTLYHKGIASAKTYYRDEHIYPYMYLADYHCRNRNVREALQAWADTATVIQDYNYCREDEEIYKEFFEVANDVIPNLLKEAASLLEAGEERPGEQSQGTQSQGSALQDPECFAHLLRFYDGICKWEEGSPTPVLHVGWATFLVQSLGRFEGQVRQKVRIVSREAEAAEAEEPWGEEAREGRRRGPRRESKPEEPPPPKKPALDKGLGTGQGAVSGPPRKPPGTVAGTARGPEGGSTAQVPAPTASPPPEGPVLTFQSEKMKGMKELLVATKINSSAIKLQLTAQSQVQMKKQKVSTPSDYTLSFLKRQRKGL
Protocol: To better understand the mechanism of MLL1 binding with menin mutants, we performed FP competition experiments using FLSN-MLL1^4-43 as a fluorescent probe for competitive displacement by MLL1 peptides ([25]). First, we tested competition with MLL1^160 and found very similar IC50 values for wild-type menin and the three mutants M327I, T349M, and G331R, ranging between 4.1 and 8 nM (Fig. 3, A and B). […] We have hypothesized that the lack of competition with MLL1 for the menin^G331D mutant might result from a much slower dissociation rate of the menin^G331D–MLL1 complex, and to evaluate this we performed time-dependent competition experiments with MLL1^160 and MLL1^46. Standard conditions in the FP assay include 3 h incubations of the menin-FLSN-MLL1^4-43 complex with competitors.
(§1) FP competition experiments used FLSN-MLL1^4-43 at 4 nM and menin at 4 nM against varying concentrations of unlabeled MLL1 peptides in FP buffer for IC50 determination. Protein-peptide complexes were incubated for 1 h before unlabeled peptide competitors were added to ensure complete binding. Unlabeled peptide competitors were incubated with the protein-peptide complexes for 3 h before measurement using the PHERAstar microplate reader ([25]). Experiments with Revumenib were run with the same steps and conditions but used 5% DMSO in the final solution. Kd and IC50 values were calculated using GraphPad Prism 10 by plotting mP values measured for each protein/MLL1 peptide or Revumenib as a function of protein/MLL1 peptide (or Revumenib) concentration ([25]). All FP binding and competition experiments were run in triplicate.

[2] = molecular target: T2, menin^T349M bound to FLSN-MLL1^4-43 (Homo sapiens, UniProt O00255, T344M); assay: FP competition, displacement of FLSN-MLL1^4-43 from menin^T349M
T2 construct: The gene encoding full-length human menin was cloned into a pET32a expression vector; thioredoxin-His6 (cleaved yes); made in house; host or cells: E. coli BL21(DE3); probe peptide from GenScript
T2 sequence (O00255 1-610 T344M): T1 sequence (O00255 1-610 G326D) with D326G, T344M
Protocol: as §1

[3] = molecular target: T3, menin^M327I bound to FLSN-MLL1^4-43 (Homo sapiens, UniProt O00255, M322I); assay: FP competition, displacement of FLSN-MLL1^4-43 from menin^M327I
T3 construct: The gene encoding full-length human menin was cloned into a pET32a expression vector; thioredoxin-His6 (cleaved yes); made in house; host or cells: E. coli BL21(DE3); probe peptide from GenScript
T3 sequence (O00255 1-610 M322I): T1 sequence (O00255 1-610 G326D) with M322I, D326G
Protocol: as §1

[4] = FP competition with MLL1 fragments, 3 h incubation, N = 3, Fig. 3B, read-out: G331D IC50
[5] = time-dependent competition, 3 h, Fig. 3D, read-out: 3h IC50
[6] = time-dependent competition, 24 h, Fig. 3D, read-out: 24h IC50
[7] = time-dependent competition, 48 h, Fig. 3D, read-out: 48h IC50
[8] = time-dependent competition, 72 h, Fig. 3D, read-out: 72h IC50
[9] = FP competition with MLL1 fragments, 3 h incubation, N = 3, Fig. 3B, read-out: T349M IC50
[10] = FP competition with MLL1 fragments, 3 h incubation, N = 3, Fig. 3B, read-out: M327I IC50

IC50 [1, 4]: > 200 nM
IC50 [1, 5]: > 200 nM
IC50 [1, 6]: 0.87 ± 0.8 nM
IC50 [1, 7]: 1.1 ± 0.6 nM
IC50 [1, 8]: 1 ± 0.2 nM
IC50 [2, 9]: 1.9 ± 0.5 nM
IC50 [3, 10]: 1.7 ± 0.7 nM
Molecule: MLL1^46: recombinant MLL1 fragment spanning amino acids 1–46, containing MBM1 and MBM2 (MAHSARWRFPARPGTTGGGGGGGRRGLGGAPRQRVPALLLPPGPPV; The printed 'Cys2' is Cys5 in the entry (peptide S4-A5-R6); Trx-His6 tag cl)

activity for the G331D variant ([1]; FP competition, 5% DMSO): no activity
IC50 ([2]; FP competition, 5% DMSO, 3 h, N = 3, Fig. 4A, read-out: IC50 (nM), menin variant T349M): 125 ± 11 nM
IC50 ([3]; FP competition, 5% DMSO, 3 h, N = 3, Fig. 4A, read-out: IC50 (nM), menin variant M327I): 535 ± 37 nM
Molecule: CCN(C(=O)c1cc(F)ccc1Oc1cncnc1N1CC2(CCN(C[C@H]3CC[C@H](NS(=O)(=O)CC)CC3)CC2)C1)C(C)C [Revumenib, reference compound]

IC50 ([1]; 24 to 72 h incubations, read-out: IC50 values, range over time points): 4.7 to 10.9 nM
IC50 [1, 4]: > 200 nM
IC50 [1, 5]: > 200 nM
IC50 [1, 6]: 4.73 ± 0.8 nM
IC50 [1, 7]: 10.9 ± 6.2 nM
IC50 [1, 8]: 7.9 ± 0.5 nM
IC50 [2, 9]: 4.4 ± 0.8 nM
IC50 [3, 10]: 5.1 ± 0.2 nM
B1: MLL1^160: N-terminal 160 amino acids of human MLL1, Cys2 mutated to alanine, recombinant (protein)
chain: MAHSARWRFPARPGTTGGGGGGGRRGLGGAPRQRVPALLLPPGPPVGGGGPGAPPSPPAVAAAAAAAGSSGAGVPGGAAAASAASSSSASSSSSSSSSASSGPALLRVGPGFDAALQVSAAIGTNLRRFRAVFGESGGGGGSGEDEQFLGFGSDEEVRVR
modifications: The printed 'Cys2' is the single N-terminal cysteine, Cys5 in the entry (peptide S4-A5-R6); Trx-His6 tag cleaved
